In patent publication US20030119072A1 (SIGNAL PHARMACEUTICALS, published 2003):
Where no end group is shown, it is not given here. The star is where a group is joined. Biotin = O=C1N[C@H]2[C@H](CS[C@H]2CCCCC(=O)*)N1; Ahx = NCCCCCC(=O)O

How the values were obtained:
GST-WWP1.2 [1] = biological target: T1, GST-WWP1.2; experiment: TRF (DELFIA) plate assay, GST-WW domain coated at 30 µg/mL, titrated with biotinylated peptide
T1 construct: Coated on polystyrene plates; also called second WW domain of WWP1; WWP1 WW domain 2; not shown: glutathione S-transferase (GST) fusion partner
T1 sequence (chain, as listed by the source): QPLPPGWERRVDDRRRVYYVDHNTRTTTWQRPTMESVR

GST-WWP1.1 [2] = biological target: T2, GST-WWP1.1; experiment: as above
T2 construct: also called WWP1 WW domain 1; not shown: glutathione S-transferase (GST) fusion partner
T2 sequence (chain, as listed by the source): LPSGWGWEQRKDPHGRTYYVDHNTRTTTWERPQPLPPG

GST-WWP1.3 [3] = biological target: T3, GST-WWP1.3; experiment: as above
T3 construct: Coated on polystyrene plates; also called WWP1 WW domain 3; not shown: glutathione S-transferase (GST) fusion partner
T3 sequence (chain, as listed by the source): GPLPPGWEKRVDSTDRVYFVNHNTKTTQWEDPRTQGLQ

GST-WWP1.4 [4] = biological target: T4, GST-WWP1.4; experiment: as above
T4 construct: Coated on polystyrene plates; also called WWP1 WW domain 4; not shown: glutathione S-transferase (GST) fusion partner

GST-WWP1.2 [5] = biological target: T1, GST-WWP1.2; experiment: TRF (DELFIA) plate assay, peptide titration of coated GST-WW domain, GST background subtracted; nonlinear least squares fit and Scatchard analysis
Description: FIGS. 8A-8B are graphs illustrating the binding of increasing concentrations of a Smad7 PY motif peptide to WWP1 WW domain peptides. In FIG. 8A, binding to four GST fusion peptides (GST-WWP1.1, GST-WWP1.2, GST-WWP1.3 and GST-WWP1.4) is shown, as well as binding to RSP5.2 WW domain. WW domain peptides were coated on polystyrene plates at the indicated receptor coating concentrations, and blocked with BSA. Biotinylated PY motif peptide was then added at the indicated concentrations. Binding was assessed using a time-resolved fluorescence assay and is shown as cps. FIG. 8B presents a Scatchard analysis of the Smad7 PY motif to WWP1.2 and WWP1.4, as indicated.
A detailed evaluation of the interactions of Smad 7 with the WWP1 WW domains and the second WW domain from RSP5 was undertaken. GST was used to correct for nonspecific background interactions. The peptide titration of the WW domains was evaluated by a nonlinear, least squares fit of the data and Scatchard analysis (FIGS. 8A-8B).

GST alone = biological target: T5, GST alone (UniProt P08515 1-218 = GST); experiment: TRF (DELFIA) plate assay, GST coated, biotinylated peptide in solution
T5 construct: Control coated on plates in the TRF assay
T5 sequence (P08515 whole entry): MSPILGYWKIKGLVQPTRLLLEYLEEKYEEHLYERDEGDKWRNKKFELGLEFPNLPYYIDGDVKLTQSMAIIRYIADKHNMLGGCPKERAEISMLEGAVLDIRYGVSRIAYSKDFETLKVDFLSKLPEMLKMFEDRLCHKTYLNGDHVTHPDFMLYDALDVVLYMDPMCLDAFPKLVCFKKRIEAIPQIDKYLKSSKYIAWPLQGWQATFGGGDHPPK
Description: (§1) Each domain was individually expressed as a GST fusion protein. A TRF binding assay was used to evaluate interactions of PY motif peptides with these domains or GST alone. WW domains were bound to a 96-well polystyrene assay plate (Costar) overnight at 4° C. in a 200 mM carbonate buffer (Pierce, Rockford, Ill.) at different concentrations (0, 1, 3, 10 μg/mL). Unbound WW domain was washed away with distilled, deionized water and the plates were blocked with 1% BSA/carbonate buffer for 2 hours at room temperature. The plates were then washed with Tris/Tween buffer: 50 mM Tris pH 7.5, 100 mM NaCl, 1 mM EDTA, 1% BSA, 1 mM DTT, 0.1% Tween20, protease inhibitor cocktail (Boehringer-Mannheim).
(§2) These biotinylated peptides were solvated in Tris/Tween buffer and added to the assay plates (30 μM). The plates were incubated at 4° C. for varying amounts of capture time. The plates were then washed with PBS/0.1% Triton X100 and probed for 1 hour at room temperature with 1 μg/mL Europium-labeled streptavidin (DELFIA; Wallac Oy, Turku, Finland) in DELFIA Assay Buffer/0.1% Triton X100. The unbound Europium-labeled streptavidin was washed with PBS/0.1% Triton X100. Europium was released for time-resolved fluorescence measurements with the DELFIA Enhancement Buffer. Measurements were made on either the DELFIA 1234 or Victor fluorometers.

GST-WWP1.2 [6] = biological target: T1, GST-WWP1.2; experiment: TRF (DELFIA) plate assay, GST-WW domain coated at 0-10 µg/mL, biotinylated peptide 30 µM
Description: as §1, §2

GST-WWP1.3 [7] = biological target: T3, GST-WWP1.3; experiment: as above
Description: as §1, §2

GST-WWP1.4 [8] = biological target: T4, GST-WWP1.4; experiment: as above
Description: as §1, §2

GST-WWP1.2 [9] = biological target: T1, GST-WWP1.2; experiment: TRF (DELFIA) plate assay, GST-WW domain coated, biotinylated peptide in solution
Description: as §1, §2

GST-WWP1.1 [10] = biological target: T2, GST-WWP1.1; experiment: as above
Description: as §1, §2

GST-WWP1.3 [11] = biological target: T3, GST-WWP1.3; experiment: as above
Description: as §1, §2

GST-WWP1.4 [12] = biological target: T4, GST-WWP1.4; experiment: as above
Description: as §1, §2

| binding result (GST-WWP1.2 [1]) | binding result (GST-WWP1.1 [2]) | binding result (GST-WWP1.3 [3]) | binding result (GST-WWP1.4 [4]) | binding result (GST alone) | Binder | other results |
| --- | --- | --- | --- | --- | --- | --- |
| no binding | no binding | no binding | no binding | – | {Biotin-Ahx}-PADTPPPAYLPPED-NH2 (SMILES CC(C)C[C@H](NC(=O)[C@H](Cc1ccc(O)cc1)NC(=O)[C@H](C)NC(=O)[C@@H]1CCCN1C(=O)[C@@H]1CCCN1C(=O)[C@@H]1CCCN1C(=O)[C@@H](NC(=O)[C@H](CC(=O)O)NC(=O)[C@H](C)NC(=O)[C@@H]1CCCN1C(=O)CCCCCNC(=O)CCCC[C@@H]1SC[C@@H]2NC(=O)N[C@@H]21)[C@@H](C)O)C(=O)N1CCC[C@H]1C(=O)N1CCC[C@H]1C(=O)N[C@@H](CCC(=O)O)C(=O)N[C@@H](CC(=O)O)C(N)=O, also called Smad 1 PY peptide; Biotin-Ahx-PADTPPPAYLPPED-CONH2) [Smad1 PY motif peptide PADTPPPAYLPPED] | – |
| binds | – | binds | binds | – | GPESPPPPYSRLSP (not fully specified (N-terminus); also: biotin with C6 linker, end not given here, also called Smad 6 peptide) [Smad6 PY motif peptide GPESPPPPYSRLSP] | – |
| – | – | – | – | – | ELESPPPPYSRYPM (not fully specified (N-terminus); also: biotin with C6 linker, end not given here, also called Smad 7 peptide) [Smad7 PY motif peptide ELESPPPPYSRYPM] | Kd (GST-WWP1.2 [5]): 2400 nM |
| – | – | – | – | no binding (tested: 30 µM peptide) | {Biotin-Ahx}-HPGTPPPPYTVGPG-NH2 (SMILES CC(C)[C@H](NC(=O)[C@@H](NC(=O)[C@H](Cc1ccc(O)cc1)NC(=O)[C@@H]1CCCN1C(=O)[C@@H]1CCCN1C(=O)[C@@H]1CCCN1C(=O)[C@@H]1CCCN1C(=O)[C@@H](NC(=O)CNC(=O)[C@@H]1CCCN1C(=O)[C@H](Cc1c[nH]cn1)NC(=O)CCCCCNC(=O)CCCC[C@@H]1SC[C@@H]2NC(=O)N[C@@H]21)[C@@H](C)O)[C@@H](C)O)C(=O)NCC(=O)N1CCC[C@H]1C(=O)NCC(N)=O, also called WBP1 peptide) [WBP1 PY motif peptide, Biotin-Ahx-HPGTPPPPYTVGPG-CONH2] | binding result (GST-WWP1.2 [6]): binds; binding result (GST-WWP1.3 [7]): binds; binding result (GST-WWP1.4 [8]): binds |
| no binding | no binding | no binding | no binding | – | AGLTPPPGYLSEDG (not fully specified (N-terminus); also: biotin with C6 linker, end not given here, also called Smad 3 peptide) [Smad3 PY motif peptide AGLTPPPGYLSEDG] | – |
| no binding | no binding | no binding | no binding | – | IPETPPPGYISEDG (not fully specified (N-terminus); also: biotin with C6 linker, end not given here, also called Smad 2 peptide) [Smad2 PY motif peptide IPETPPPGYISEDG] | – |
| – | – | – | – | no binding (tested: 30 µM peptide) | {Biotin-Ahx}-IPGTPPPNYDSLRL-NH2 (SMILES CC[C@H](C)[C@H](NC(=O)CCCCCNC(=O)CCCC[C@@H]1SC[C@@H]2NC(=O)N[C@@H]21)C(=O)N1CCC[C@H]1C(=O)NCC(=O)N[C@H](C(=O)N1CCC[C@H]1C(=O)N1CCC[C@H]1C(=O)N1CCC[C@H]1C(=O)N[C@@H](CC(N)=O)C(=O)N[C@@H](Cc1ccc(O)cc1)C(=O)N[C@@H](CC(=O)O)C(=O)N[C@@H](CO)C(=O)N[C@@H](CC(C)C)C(=O)N[C@@H](CCCNC(=N)N)C(=O)N[C@@H](CC(C)C)C(N)=O)[C@@H](C)O) [Nedd PY motif peptide, Biotin-Ahx-IPGTPPPNYDSLRL-CONH2] | binding result (GST-WWP1.2 [9]): no binding (tested: 30 µM peptide); binding result (GST-WWP1.1 [10]): no binding (tested: 30 µM peptide); binding result (GST-WWP1.3 [11]): no binding (tested: 30 µM peptide); binding result (GST-WWP1.4 [12]): no binding (tested: 30 µM peptide) |
| – | – | – | – | no binding (tested: 30 µM peptide) | {Biotin-Ahx}-IPGTPPPNHDSLRL-NH2 (SMILES CC[C@H](C)[C@H](NC(=O)CCCCCNC(=O)CCCC[C@@H]1SC[C@@H]2NC(=O)N[C@@H]21)C(=O)N1CCC[C@H]1C(=O)NCC(=O)N[C@H](C(=O)N1CCC[C@H]1C(=O)N1CCC[C@H]1C(=O)N1CCC[C@H]1C(=O)N[C@@H](CC(N)=O)C(=O)N[C@@H](Cc1c[nH]cn1)C(=O)N[C@@H](CC(=O)O)C(=O)N[C@@H](CO)C(=O)N[C@@H](CC(C)C)C(=O)N[C@@H](CCCNC(=N)N)C(=O)N[C@@H](CC(C)C)C(N)=O)[C@@H](C)O) [Mutant Nedd PY motif peptide, Biotin-Ahx-IPGTPPPNHDSLRL-CONH2] | binding result (GST-WWP1.2 [9]): no binding (tested: 30 µM peptide); binding result (GST-WWP1.1 [10]): no binding (tested: 30 µM peptide); binding result (GST-WWP1.3 [11]): no binding (tested: 30 µM peptide); binding result (GST-WWP1.4 [12]): no binding (tested: 30 µM peptide) |
| binds | – | binds | binds | – | PADTPPPAYMPPDD (not fully specified (N-terminus); also: biotin with C6 linker, end not given here, also called Smad 5 peptide) [Smad5 PY motif peptide PADTPPPAYMPPDD] | – |
